Experimental data published in US6365356B1, “Receptors that regulate cell signaling relating to chemokines” (Cornell Research Foundation, Inc., priority 1999, dated 2002).

Experiments:
Format in all cases: cell-based
[1] = biological target: T1, CXCR4 (Homo sapiens, UniProt P61073); assay: Luciferase reporter gene assay (protein kinase C-responsive promoter), COS-1 cells expressing CXCR4 but not DARC; details: COS-1 cells expressing CXCR4 alone; luciferase gene controlled by protein kinase C-responsive promoter
T1 construct: expressed in transfected cells; host or cells: COS-1 cells, transient DEAE-dextran transfection with pcDNA3.1 encoding CXCR4
T1 sequence (P61073 whole entry): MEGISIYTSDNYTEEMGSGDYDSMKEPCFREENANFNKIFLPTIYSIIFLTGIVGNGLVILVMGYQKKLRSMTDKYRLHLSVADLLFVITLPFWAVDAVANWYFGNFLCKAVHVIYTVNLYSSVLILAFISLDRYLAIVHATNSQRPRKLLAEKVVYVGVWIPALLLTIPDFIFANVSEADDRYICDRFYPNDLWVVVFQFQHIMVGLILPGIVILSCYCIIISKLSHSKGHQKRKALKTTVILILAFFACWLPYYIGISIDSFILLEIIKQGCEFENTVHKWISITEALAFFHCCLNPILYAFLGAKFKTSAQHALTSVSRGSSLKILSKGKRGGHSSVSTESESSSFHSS
Method: (§1) A second group of COS-1 cells were made to express DARC, but not CXCR4. A third group of COS-1 cells were made to express CXCR4, but not DARC. Signaling due to stromal cell derived factor 1 (SDF-1) and GRO-α was measured in a reporter gene assay using a luciferase gene controlled by a protein kinase C-responsive promoter.
(§2) Cell Culture and Transfection. COS-1 cells are maintained in Dulbecco's modified eagle's medium with 5% fetal calf serum and are seeded 1 day prior to transfection at 750,000 cells/100 mm dish. Cells are transfected with pcDNA3.1 (Invitrogen) encoding DARC (5 μg DNA/ml) or with pcDNA3.1 encoding CXCR4 (5 μg DNA/ml), or both using the DEAE-dextran method and maintained in Dulbecco's modified Eagle's medium with 10% fetal calf serum for 1 day at which time cells are harvested and seeded into 12-well plates at 100,000 cells/well or 24-well plates at 50,000 cells/well in Dulbecco's modified Eagle's medium with 5% fetal calf serum. Other cell lines, such as HEK-293 or CHO cells, can be stably transfected with DARC or CXCR4, or both.
(§3) Reporter Gene Assays. […] Agonists or agonists plus antagonists are added for four hours and the reporter activity measured. […]

[2] = system: DARC; assay: Luciferase reporter gene assay (protein kinase C-responsive promoter), COS-1 cells expressing DARC but not CXCR4; details: COS-1 cells expressing DARC alone; luciferase gene controlled by protein kinase C-responsive promoter
Method: as §1, §2, §3

[3] = biological target: T2, DARC and CXCR4 (Homo sapiens, UniProt Q16570); assay: Luciferase reporter gene assay (protein kinase C-responsive promoter), COS-1 cells co-expressing DARC and CXCR4; details: single chemokine
T2 construct: expressed in transfected cells; host or cells: COS-1 cells co-transfected (DEAE-dextran) with pcDNA3.1 encoding DARC and pcDNA3.1 encoding CXCR4
T2 sequence (Q16570 1-336): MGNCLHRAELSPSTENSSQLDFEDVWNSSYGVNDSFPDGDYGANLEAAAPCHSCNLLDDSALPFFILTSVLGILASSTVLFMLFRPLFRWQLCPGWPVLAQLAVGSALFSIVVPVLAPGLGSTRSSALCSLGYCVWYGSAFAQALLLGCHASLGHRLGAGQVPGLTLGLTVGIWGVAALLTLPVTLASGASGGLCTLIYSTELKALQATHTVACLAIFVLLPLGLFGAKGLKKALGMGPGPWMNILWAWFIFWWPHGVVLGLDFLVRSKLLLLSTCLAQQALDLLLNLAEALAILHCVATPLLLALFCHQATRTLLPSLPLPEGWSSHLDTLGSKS
Method: as §1, §2, §3

| Substance | Signaling in reporter gene assay via CXCR4 [1] | Signaling in reporter gene assay via DARC [2] | Signaling (gene transcription) in reporter gene assay [3] |
| --- | --- | --- | --- |
| growth-related protein-α [GRO-α] | did not signal | did not signal | increase gene transcription |
| stromal cell derived factor 1 [SDF-1] | signals weakly | does not signal | – |
